# Source: publication PMC3438196
# B1: Apobec3G-GFP MAPPIT bait (pCEL-Apobec3G-GFP) [human] / Apobec3G MAPPIT prey (pMG2-Apobec3G) [human] (parent)
# chain 1: MKPHFRNTVERMYRDTFSYNFYNRPILSRRNTVWLCYEVKTKGPSRPPLDAKIFRGQVYSELKYHPEMRFFHWFSKWRKLHRDQEYEVTWYISWSPCTKCTRDMATFLAEDPKVTLTIFVARLYYFWDPDYQEALRSLCQKRDGPRATMKIMNYDEFQHCWSKFVYSQRELFEPWNNLPKYYILLHIMLGEILRHSMDPPTFTFNFNNEPWVRGRHETYLCYEVERMHNDTWVLLNQRRGFLCNQAPHKHGFLEGRHAELCFLDVIPFWKLDLDQDYRVTCFTSWSPCFSCAQEMAKFISKNKHVSLCIFTARIYDDQGRCQEGLRTLAEAGAKISIMTYSEFKHCWDTFVDHQGCPFQPWDGLDEHSQDLSGRLRAILQNQEN
# chain 2: B1 chain 1
# Variants of: B1
# Experiment: MAPPIT
# Details: with Apobec3G MAPPIT prey (pMG2-Apobec3G) [human]
row,Variant,percent of parent
1,chain 1 Y222N,7 % of WT
2,chain 1 R78W,18 % of WT
3,chain 1 W175R,28 % of WT
4,chain 1 R24G,5 % of WT
5,chain 1 W94R,14 % of WT
6,chain 1 K63R,5 % of WT
7,chain 1 R30L,10 % of WT
8,chain 1 K270E,54 % of WT
9,chain 1 E191V,40 % of WT
10,chain 1 W269G,68 % of WT
11,chain 1 D128G,47 % of WT
